Measurements reported in patent US20220185901A1 (Bayer, published 2022).

T1: hActivin RIA/ALK-2 Fc Chimera (TPP-17233) (human, UniProt Q04771 23-123)
T1 construct: also called human ALK-2-Fc
T1 sequence: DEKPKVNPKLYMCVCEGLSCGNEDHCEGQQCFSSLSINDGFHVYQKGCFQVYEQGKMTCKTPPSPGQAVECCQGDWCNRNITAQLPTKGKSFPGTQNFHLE


What was measured:
[1] = biological target: ALK-1/BMPR-2 receptor pair on PathHunter U2OS ALK-1/BMPR-2 dimerization cells (DiscoverX 93-0962C3) (UniProt P37023 22-503; Q13873 27-1038); assay: cell-based or functional assay
[2] = biological target: T2, human ALK-1-Fc (TPP-11726) (human); assay: ELISA: human ALK-1-Fc coated at 2 µg/ml, TPP-14696 titrated, detected with anti-human IgG2 (Fc specific) then anti-mouse IgG-HRP; readout Relative Fluorescence Units
T2 construct: Used for panning, screening and SPR; also called hALK-1-Fc
Method: (§1) Antigens human ALK-1-Fc and human ALK-2-Fc were coated at 2 μg/ml and binding of TPP-14696 and TPP-14719 was detected by anti-human IgG2 (Fc specific) antibody (Sigma 19513) followed by anti-mouse IgG (whole molecule)—HRP (Sigma A9044, 1:40000).
(§2) In order to determine the selectivity for the ALK-1/BMPR-2 receptor complex compared to the ALK-2/BMPR-2 receptor, the specificity of the agonistic antibodies has been evaluated by ELISA (FIG. 9). The antigens human ALK-1-Fc and human ALK-2-Fc were coated at 2 μg/ml and binding of TPP-14696 and TPP-14719 was detected by anti-human IgG2 (Fc specific) antibody (Sigma 19513) followed by anti-mouse IgG (whole molecule)—HRP (Sigma A9044, 1:40000).

[3] = biological target: T1, hActivin RIA/ALK-2 Fc Chimera …; assay: ELISA: human ALK-2-Fc coated at 2 µg/ml, TPP-14696 titrated, detected with anti-human IgG2 (Fc specific) then anti-mouse IgG-HRP; readout Relative Fluorescence Units
Method: as §1, §2

[4] = biological target: T3, BMPR-2-FcHis6 (TPP-11725) (human); assay: SPR, Biacore T200, antigen amine-coupled to the chip, antibody injected at 1.56-200 nM, 1:1 Langmuir fit, 25 C
T3 construct: also called human BMPR-2
Method: (§3) SPR experiments for quantitative binding analyses were performed using a Biacore T200 instrument (GE Healthcare Biacore, Inc.) equipped with Series S Sensor Chips CMS (GE Healthcare Biacore, Inc.). Binding assays were carried out at 25° C. with assay buffer HBS-EP+ (10 mM HEPES pH 7.4, 150 mM NaCl, 3 mM EDTA, 0.05% Surfactant P20). Antigens were covalently immobilized to the chip surface via amine coupling chemistry. The same proteins that had previously been used to isolate the antibodies of the invention during panning and screening [murine ALK-1-Fc SEQ ID NO: 114, human ALK-1-Fc SEQ ID NO: 116, as well as BMPR-2-Fc SEQ ID NO: 115 (human and murine extracellular are identical)] were used here as […] to determine KD values. Reagents for amine coupling (1-ethyl-3-(3-dimethylaminopropyl) carbodiimide hydrochloride (EDC), N-hydroxysuccinimide (NHS), ethanolamine-HCl pH 8.5) were used from the Amine Coupling Kit (GE Healthcare, product code BR-1000-50). The sensor chip surface was activated with a freshly prepared solution of 0.2 M EDC and 0.05 M NHS passed over the chip surface for 420 seconds at a flow rate of 10 μl/min, followed by an injection of antigen (dissolved to 0.5 μg/ml in immobilization buffer, 10 mM sodium acetate pH 5.0) with a target level of 50 RU. Excess of activated groups were blocked with a 1 molar solution of ethanolamine injected at a flow rate of 10 μl/min for 420 seconds.
(§4) The sensor surface was regenerated for 20 seconds with regeneration solution (glycine-HCl pH 1.5) after each assay cycle consisting of a single analyte injection.
(§5) Obtained sensorgrams were double-referenced, (reference cell correction followed by buffer sample subtraction). KD values were calculated based on the ratio of dissociation (kd) and association (kₐ) rate constants which were obtained by globally fitting sensorgrams with a first order 1:1 Langmuir binding model, implemented in the Biacore Evaluation Software Package (Biacore T200 Evaluation Software Version 2.0, GE Healthcare Biacore, Inc.).

[5] = biological target: T4, murine ALK-1-Fc (TPP-11724) (murine); assay: as above
T4 construct: also called mouse ALK-1
Method: as §3, §4, §5

[6] = biological target: T2, human ALK-1-Fc (TPP-11726); assay: as above
Method: as §3, §4, §5

T2 sequence (chain, as listed by the source limits assumed): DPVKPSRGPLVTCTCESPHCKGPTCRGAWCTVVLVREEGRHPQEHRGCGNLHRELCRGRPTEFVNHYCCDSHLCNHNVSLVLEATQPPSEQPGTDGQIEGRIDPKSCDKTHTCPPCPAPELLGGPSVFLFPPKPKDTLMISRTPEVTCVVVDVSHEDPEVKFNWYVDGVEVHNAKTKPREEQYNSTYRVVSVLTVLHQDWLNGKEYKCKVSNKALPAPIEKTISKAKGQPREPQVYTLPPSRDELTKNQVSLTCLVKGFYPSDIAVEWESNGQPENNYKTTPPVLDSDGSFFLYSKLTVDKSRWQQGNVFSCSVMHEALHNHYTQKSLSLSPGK
T3 sequence (chain, as listed by the source limits assumed): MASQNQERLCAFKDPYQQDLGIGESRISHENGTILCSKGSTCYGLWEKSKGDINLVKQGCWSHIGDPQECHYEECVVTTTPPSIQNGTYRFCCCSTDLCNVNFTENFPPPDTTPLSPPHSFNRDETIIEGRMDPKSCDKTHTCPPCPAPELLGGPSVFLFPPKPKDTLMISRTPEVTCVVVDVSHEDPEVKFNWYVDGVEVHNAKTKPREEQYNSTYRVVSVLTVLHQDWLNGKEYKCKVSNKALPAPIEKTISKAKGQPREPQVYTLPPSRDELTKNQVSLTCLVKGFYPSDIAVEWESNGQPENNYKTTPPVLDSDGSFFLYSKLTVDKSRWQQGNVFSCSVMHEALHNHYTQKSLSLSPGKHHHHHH
T4 sequence (chain, as listed by the source limits assumed): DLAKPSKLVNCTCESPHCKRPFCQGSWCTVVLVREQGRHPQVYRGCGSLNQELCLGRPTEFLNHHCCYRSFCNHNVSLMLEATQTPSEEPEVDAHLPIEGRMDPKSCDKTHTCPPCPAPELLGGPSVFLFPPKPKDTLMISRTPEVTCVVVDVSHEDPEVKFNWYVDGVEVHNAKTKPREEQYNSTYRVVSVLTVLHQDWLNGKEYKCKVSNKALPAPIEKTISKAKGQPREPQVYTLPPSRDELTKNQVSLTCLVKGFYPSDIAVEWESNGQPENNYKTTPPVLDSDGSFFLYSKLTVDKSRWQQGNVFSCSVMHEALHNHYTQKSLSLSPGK
ALK-1/BMPR-2 receptor pair on PathHunter U2OS ALK-1/BMPR-2 dimerization cells (DiscoverX 93-0962C3), sequence (P37023 22-503, chain 1 of 2): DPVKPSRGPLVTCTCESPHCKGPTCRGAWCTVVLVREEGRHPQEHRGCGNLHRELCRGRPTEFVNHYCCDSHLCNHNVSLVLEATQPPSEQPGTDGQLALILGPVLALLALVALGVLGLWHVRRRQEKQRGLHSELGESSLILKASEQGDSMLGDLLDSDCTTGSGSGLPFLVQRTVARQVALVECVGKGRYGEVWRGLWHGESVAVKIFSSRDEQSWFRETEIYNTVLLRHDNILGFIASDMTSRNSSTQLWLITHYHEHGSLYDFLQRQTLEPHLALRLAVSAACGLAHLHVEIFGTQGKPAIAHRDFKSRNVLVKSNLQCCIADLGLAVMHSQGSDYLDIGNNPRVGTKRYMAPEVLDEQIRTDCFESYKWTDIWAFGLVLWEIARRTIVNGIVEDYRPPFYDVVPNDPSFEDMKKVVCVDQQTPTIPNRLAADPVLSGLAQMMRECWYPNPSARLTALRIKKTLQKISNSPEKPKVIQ
ALK-1/BMPR-2 receptor pair on PathHunter U2OS ALK-1/BMPR-2 dimerization cells (DiscoverX 93-0962C3), sequence (Q13873 27-1038, chain 2 of 2): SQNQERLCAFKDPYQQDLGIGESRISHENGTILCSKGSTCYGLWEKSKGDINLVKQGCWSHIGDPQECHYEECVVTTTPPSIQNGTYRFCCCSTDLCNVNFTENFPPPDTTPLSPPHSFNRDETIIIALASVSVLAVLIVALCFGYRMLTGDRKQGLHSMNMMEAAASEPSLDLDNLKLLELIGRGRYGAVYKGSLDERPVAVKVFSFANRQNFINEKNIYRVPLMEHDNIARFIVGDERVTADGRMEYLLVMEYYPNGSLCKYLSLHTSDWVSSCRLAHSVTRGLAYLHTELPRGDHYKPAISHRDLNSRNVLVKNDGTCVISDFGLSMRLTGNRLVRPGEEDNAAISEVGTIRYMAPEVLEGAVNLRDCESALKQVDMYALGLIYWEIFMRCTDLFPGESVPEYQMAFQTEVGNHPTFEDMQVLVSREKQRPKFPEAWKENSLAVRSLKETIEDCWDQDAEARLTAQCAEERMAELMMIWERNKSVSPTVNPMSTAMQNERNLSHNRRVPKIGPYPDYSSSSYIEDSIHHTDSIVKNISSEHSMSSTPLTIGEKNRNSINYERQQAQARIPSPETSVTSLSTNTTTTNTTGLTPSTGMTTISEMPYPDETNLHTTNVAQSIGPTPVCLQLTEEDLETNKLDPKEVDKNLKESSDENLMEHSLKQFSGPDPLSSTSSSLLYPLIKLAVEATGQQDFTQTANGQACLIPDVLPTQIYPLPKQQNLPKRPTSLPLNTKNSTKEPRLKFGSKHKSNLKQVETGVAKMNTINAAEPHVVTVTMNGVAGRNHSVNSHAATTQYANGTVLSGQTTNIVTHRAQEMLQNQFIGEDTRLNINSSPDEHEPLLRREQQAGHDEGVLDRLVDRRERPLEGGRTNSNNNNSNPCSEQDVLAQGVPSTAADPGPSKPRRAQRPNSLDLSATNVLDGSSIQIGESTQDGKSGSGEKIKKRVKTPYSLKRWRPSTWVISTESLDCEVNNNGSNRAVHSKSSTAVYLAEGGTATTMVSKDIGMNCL

Kd [4]	Kd [5]	Kd [6]	Binder	also measured
			TPP-14696 (13654-13667-scFv-kih-IgG2_Fc) (bispecific antibody, scFv-Fc (kih) heterodimer with IgG2 Fc; also called TPP-14669 (as printed in some places); BsAB TPP-14696) chain 1: EVQLLESGGGLVQPGGSLRLSCAASGFTFSIYAMSWVRQAPGKGLEWVSAISGSGGSTYYADSVKGRFTISRDNSKNTLYLQMNSLRAEDTAVYYCARDFDYWGQGTLVTVTSSGGGGSGGGGSGGGGSQSVLTQPPSASGTPGQRVTISCSGSSSNIGSNYVYWYQQLPGTAPKLLIYGNINRPSGVPDRFSGSKSGTSASLAISGLRSEDEADYYCAAWDDSLNGRVFGGGTKLTVLGGGGSGGGGSGGGGSGVECPPCPAPPVAGPSVFLFPPKPKDTLMISRTPEVTCVVVDVSHEDPEVQFNWYVDGVEVHNAKTKPREEQFNSTFRVVSVLTVVHQDWLNGKEYKCKVSNKGLPAPIEKTISKTKGQPREPQVYTLPPCREEMTKNQVSLWCLVKGFYPSDIAVEWESNGQPENNYKTTPPMLDSDGSFFLYSKLTVDKSRWQQGNVFSCSVMHEALHNHYTQKSLSLSPG chain 2: EVQLLESGGGLVQPGGSLRLSCAASGFTFSNAWMNWVRQAPGKGLEWVSSISSSSSYIYYADSVKGRFTISRDNSKNTLYLQMNSLRAEDTAVYYCARAVAAGGMFWGLDQWGQGTLVTVTSSGGGGSGGGGSGGGGSQSVLTQPPSASGTPGQRVTISCSGSRSNIGSNSVHWYQQLPGTAPKLLIYGNSNRPSGVPDRFSGSKSGTSASLAISGLRSEDEADYYCQSYDSSLNDHVVFGGGTKLTVLGGGGSGGGGSGGGGSGVECPPCPAPPVAGPSVFLFPPKPKDTLMISRTPEVTCVVVDVSHEDPEVQFNWYVDGVEVHNAKTKPREEQFNSTFRVVSVLTVVHQDWLNGKEYKCKVSNKGLPAPIEKTISKTKGQPREPQVCTLPPSREEMTKNQVSLSCAVKGFYPSDIAVEWESNGQPENNYKTTPPMLDSDGSFFLVSKLTVDKSRWQQGNVFSCSVMHEALHNHYTQKSLSLSPG	Agonistic activity in PathHunter U2OS cells EC50 [1]: 6.3 nM; EC50 [2]: 1.01 nM; binding result [3]: no binding
8.8 nM			TPP-13667 (484A-M198-J22-scFv-Fc-hIgG2) (Fc fusion, Monospecific antibody (MsAB) against BMPR-2; the first row says hIgG2; not shown: human IgG2 Fc (and any linker), implied by the construct name scFv-Fc-hIgG2) EVQLLESGGGLVQPGGSLRLSCAASGFTFSNAWMNWVRQAPGKGLEWVSSISSSSSYIYYADSVKGRFTISRDNSKNTLYLQMNSLRAEDTAVYYCARAVAAGGMFWGLDQWGQGTLVTVTSSGGGGSGGGGSGGGGSQSVLTQPPSASGTPGQRVTISCSGSRSNIGSNSVHWYQQLPGTAPKLLIYGNSNRPSGVPDRFSGSKSGTSASLAISGLRSEDEADYYCQSYDSSLNDHVVFGGGTKLTVLGGGGSGGGGSGGGGSGVECPPCPAPPVAGPSVFLFPPKPKDTLMISRTPEVTCVVVDVSHEDPEVQFNWYVDGVEVHNAKTKPREEQFNSTFRVVSVLTVVHQDWLNGKEYKCKVSNKGLPAPIEKTISKTKGQPREPQVYTLPPSREEMTKNQVSLTCLVKGFYPSDIAVEWESNGQPENNYKTTPPMLDSDGSFFLYSKLTVDKSRWQQGNVFSCSVMHEALHNHYTQKSLSLSPG	
	25 nM	8.6 nM	TPP-13654 (484A-M233-M07-scFv-Fc-hIgG2) (Fc fusion, Monospecific antibody (MsAB) against ALK-1; the construct name says scFv-Fc-hIgG2; not shown: human IgG2 Fc (and any linker), implied by the construct name scFv-Fc-hIgG2) EVQLLESGGGLVQPGGSLRLSCAASGFTFSIYAMSWVRQAPGKGLEWVSAISGSGGSTYYADSVKGRFTISRDNSKNTLYLQMNSLRAEDTAVYYCARDFDYWGQGTLVTVTSSGGGGSGGGGSGGGGSQSVLTQPPSASGTPGQRVTISCSGSSSNIGSNYVYWYQQLPGTAPKLLIYGNINRPSGVPDRFSGSKSGTSASLAISGLRSEDEADYYCAAWDDSLNGRVFGGGTKLTVLGGGGSGGGGSGGGGSGVECPPCPAPPVAGPSVFLFPPKPKDTLMISRTPEVTCVVVDVSHEDPEVQFNWYVDGVEVHNAKTKPREEQFNSTFRVVSVLTVVHQDWLNGKEYKCKVSNKGLPAPIEKTISKTKGQPREPQVYTLPPSREEMTKNQVSLTCLVKGFYPSDIAVEWESNGQPENNYKTTPPMLDSDGSFFLYSKLTVDKSRWQQGNVFSCSVMHEALHNHYTQKSLSLSPG	
6.2 nM			TPP-13469 (484A-M010-C06-scFv-Fc-hIgG2) (Fc fusion, Monospecific antibody (MsAB) against BMPR-2; the construct name says scFv-Fc-hIgG2; not shown: human IgG2 Fc (and any linker), implied by the construct name scFv-Fc-hIgG2) EVQLLESGGGLVQPGGSLRLSCAASGFTFSDYYMTWIRQAPGKGLEWVSSISGGSTYYADSRKGRFTISRDNSENTLYLQMNSLRAEDTAVYYCARDFGVAGWFGQYGMDVWGQGTLVTVSSGGGGSGGGGSGGGGSQSVLTQPPSASGTPGQRVTISCTGSSSNIGAGYDVHWYQQLPGTAPKLLIYRSNQRPSGVPDRFSGSKSGTSASLAISGLRSEDEADYYCSSYAGNYNLVFGGGTKLTVLGGGGSGGGGSGGGGSGVECPPCPAPPVAGPSVFLFPPKPKDTLMISRTPEVTCVVVDVSHEDPEVQFNWYVDGVEVHNAKTKPREEQFNSTFRVVSVLTVVHQDWLNGKEYKCKVSNKGLPAPIEKTISKTKGQPREPQVYTLPPSREEMTKNQVSLTCLVKGFYPSDIAVEWESNGQPENNYKTTPPMLDSDGSFFLYSKLTVDKSRWQQGNVFSCSVMHEALHNHYTQKSLSLSPG	
	25 nM	8.5 nM	TPP-13660 (484A-M232-A14-scFv-Fc-hIgG2) (Fc fusion, Monospecific antibody (MsAB) against ALK-1; the construct name says scFv-Fc-hIgG2; not shown: human IgG2 Fc (and any linker), implied by the construct name scFv-Fc-hIgG2) EVQLLESGGGLVQPGGSLRLSCAASGFTFSSYAMSWVRQAPGKGLEWVANINQDGSEKNYVDSMRGRFTISRDNSKNTLYLQMNSLRAEDTAVYYCAREFDYWGQGTLVTVTSSGGGGSGGGGSGGGGSQSVLAQPPSASGTPGQRVTISCSGSSSNIGSNYVYWYQQLPGTAPKLLIYGNNKRPSGVPDRFSGSKSGTSASLAISGLRSEDEADYYCAAWDDSLNGRVFGGGTKLTVLGGGGSGGGGSGGGGSGVECPPCPAPPVAGPSVFLFPPKPKDTLMISRTPEVTCVVVDVSHEDPEVQFNWYVDGVEVHNAKTKPREEQFNSTFRVVSVLTVVHQDWLNGKEYKCKVSNKGLPAPIEKTISKTKGQPREPQVYTLPPSREEMTKNQVSLTCLVKGFYPSDIAVEWESNGQPENNYKTTPPMLDSDGSFFLYSKLTVDKSRWQQGNVFSCSVMHEALHNHYTQKSLSLSPG	
